Assay [1] concerns the target hLC3-KCK-his6 (human) (UniProt Q9GZQ8). The assay is described as follows: FRET or BRET; various concentrations of Alexa Fluor 546-labeled NT JMY added to 200 nM Alexa Fluor 647-labeled LC3; 100 mM KCl, 20 mM Hepes pH 7.4.
Assay [2] has the same target. The assay is described as follows: AUC; sedimentation equilibrium of purified LC3 in solution; dimer to monomers.

Our source for the Kd values is publication PMC6314544.

As a reminder, the Kd is the concentration at which binding is half-saturated. In the assay with hLC3-KCK-his6 (human) [1], “SNAP-JMY (1-314), N-terminal region of JMY (from UniProt Q8N9B5 1-314) (domain or fragment)” registered a Kd of 55 nM. This counts as double-digit nanomolar.
On to “hLC3-KCK-his6 (from UniProt Q9GZQ8 1-120) (natural protein)”, for which the dissociation constant Kd with hLC3-KCK-his6 (human) [2] is greater than 700000 nM.
